Experimental data published in US20090169520.

How the values were obtained:
[1] = target: synthetic Aβ (1-40) peptide (Biosource), P05067
[2] = target: T1, Amylin (islet amyloid polypeptide, IAPP), P10997
T1 chain: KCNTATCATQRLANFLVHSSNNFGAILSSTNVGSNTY

synthetic Aβ (1-40) peptide (Biosource), P05067, sequence (P05067 whole entry, looked up, tested part not stated): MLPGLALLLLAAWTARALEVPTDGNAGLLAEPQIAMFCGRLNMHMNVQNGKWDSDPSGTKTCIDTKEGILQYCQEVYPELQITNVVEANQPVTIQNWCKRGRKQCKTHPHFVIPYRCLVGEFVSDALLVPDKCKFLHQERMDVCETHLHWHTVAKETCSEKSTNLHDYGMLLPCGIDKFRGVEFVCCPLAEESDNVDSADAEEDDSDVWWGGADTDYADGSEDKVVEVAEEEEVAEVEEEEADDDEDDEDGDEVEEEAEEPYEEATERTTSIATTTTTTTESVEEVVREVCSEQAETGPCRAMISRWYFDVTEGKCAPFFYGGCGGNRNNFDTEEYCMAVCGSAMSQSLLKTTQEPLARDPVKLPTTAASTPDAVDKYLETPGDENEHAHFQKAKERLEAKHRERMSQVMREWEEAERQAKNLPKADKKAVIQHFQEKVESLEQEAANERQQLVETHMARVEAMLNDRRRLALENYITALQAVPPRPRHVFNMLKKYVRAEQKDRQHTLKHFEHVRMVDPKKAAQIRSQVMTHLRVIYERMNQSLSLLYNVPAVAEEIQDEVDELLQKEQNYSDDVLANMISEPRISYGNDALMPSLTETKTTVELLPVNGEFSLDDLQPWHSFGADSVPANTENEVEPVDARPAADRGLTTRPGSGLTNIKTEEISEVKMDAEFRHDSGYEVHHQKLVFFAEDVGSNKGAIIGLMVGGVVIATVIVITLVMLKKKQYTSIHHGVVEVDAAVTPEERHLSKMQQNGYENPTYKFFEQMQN

B1: recombinant human AChE-S (synaptic acetylcholinesterase) (protein)
chain: EGREDAELLVTVRGGRLRGIRLKTPGGPVSAFLGIPFAEPPMGPRRFLPPEPKQPWSGVVDATTFQSVCYQYVDTLYPGFEGTEMWNPNRELSEDCLYLNVWTPYPRPTSPTPVLVWIYGGGFYSGASSLDVYDGRFLVQAERTVLVSMNYRVGAFGFLALPGSREAPGNVGLLDQRLALQWVQENVAAFGGDPTSVTLFGESAGAASVGMHLLSPPSRGLFHRAVLQSGAPNGPWATVGMGEARRRATQLAHLVGCPPGGTGGNDTELVACLRTRPAQVLVNHEWHVLPQESVFRFSFVPVVDGDFLSDTPEALINAGDFHGLQVLVGVVKDEGSYFLVYGAPGFSKDNESLISRAEFLAGVRVGVPQVSDLAAEAVVLHYTDWLHPEDPARLREALSDVVGDHNVVCPVAQLAGRLAAQGARVYAYVFEHRASTLSWPLWMGVPHGYEIEFIFGIPLDPSRNYTAEEKIFAQRLMRYWANFARTGDPNEPRDPKAPQWPPYTAGAQQYVSLDLRPLEVRRGLRAQACAFWNRFLPKLLSATDTLDEAERQWKAEFHRWSSYMVHWKNQFDHYSKQDRCSDL
In the case of B1, the Lag (fold change) of Aβ fibrillation against no addition [1] is reported as 0.6 fold, the Lag (h) before onset of Aβ fibrillation (no addition: 4.0 ± 0.3) [1] is reported as 2.5 h and the Rate (FU/h) of Aβ fibrillation, ThT fluorescence, 33 µM Aβ, AChE-S at 25.8 mg/L (no addition: 3.4 ± 0.4) [1] is reported as 7 FU/h. It also gave a Rate (fold change) of Aβ fibrillation against no addition [1] of 2.1 fold.

B2: purified human BChE (butyrylcholinesterase, from human serum; Sigma) (protein)
chain: EDDIIIATKNGKVRGMNLTVFGGTVTAFLGIPYAQPPLGRLRFKKPQSLTKWSDIWNATKYANSCCQNIDQSFPGFHGSEMWNPNTDLSEDCLYLNVWIPAPKPKNATVLIWIYGGGFQTGTSSLHVYDGKFLARVERVIVVSMNYRVGALGFLALPGNPEAPGNMGLFDQQLALQWVQKNIAAFGGNPKSVTLFGESAGAASVSLHLLSPGSHSLFTRAILQSGSFNAPWAVTSLYEARNRTLNLAKLTGCSRENETEIIKCLRNKDPQEILLNEAFVVPYGTPLSVNFGPTVDGDFLTDMPDILLELGQFKKTQILVGVNKDEGTAFLVYGAPGFSKDNNSIITRKEFQEGLKIFFPGVSEFGKESILFHYTDWVDDQRPENYREALGDVVGDYNFICPALEFTKKFSEWGNNAFFYYFEHRSSKLPWPEWMGVMHGYEIEFVFGLPLERRDNYTKAEEILSRSIVKRWANFAKYGNPNETQNNSTSWPVFKSTEQKYLTLNTESTRIMTKLRAQQCRFWTSFFPKVLEMTGNIDEAEWEWKAGFHRWNNYMMDWKNQFNDYTSKKESCVGL
In the case of B2, the “Aβ fibril formation in a mix of 33 µM Aβ with 0.36 µM AChE-S and increasing doses of hBChE (ThT fluorescence)” value [1] is reported as “a dose-dependent interference with the fibril formation process was observed”, the Lag (fold change) of Aβ fibrillation against no addition [1] is reported as 1.4 fold and the Lag (h) before onset of Aβ fibrillation [1] is reported as 5.6 h. For the same protein, the Rate (FU/h) of Aβ fibrillation, ThT fluorescence, BChE at 27.4 mg/L [1] was 1.1 FU/h, the Rate (fold change) of Aβ fibrillation against no addition [1] was 0.3 fold and the “concentration needed for a complete attenuation of Aβ fibrillation (for 400 minutes)” value [1] was “as compared with 30 µg/ml of the complete BChE enzyme”. The “time for which Aβ fibril formation was totally prevented (0.4 µM BChE, 33 µM Aβ, ThT fluorescence)” value [1] was “addition of 0.4 µM BChE to 33 µM Aβ totally prevented fibril formation for over 600 minutes”, the “lag time of amylin amyloid fibril formation with 0.24 µM BChE (30 minutes without)” value [2] was “increased the lag time of amyloid fibril formation from 30 minutes to 110 minutes” and the “time for which amylin fibril formation was completely attenuated (20 µM amylin, 0.24 µM BChE, ThT fluorescence)” value [2] was “BChE completely attenuated the formation of amylin fibrils for 100 minutes”.
